The results in this text go back to the RNAGym collection of RNA variant scans (doi:10.1093/molbev/msab373).

To fix the notation:
B1: Azoarcus group I ribozyme (parent)
chain: GUGCCUUGCGCCGGGAAACCACGCAAGGGAUGGUGUCAAAUUCGGCGAAACCUAAGCGCCCGCCCGGGCGUAUGGCAACGCCGAGCCAAGCUUCGGCGCCUGCGCCGAUGAAGGUGUAGAGACUAGACGGCACCCACCUAAGGCAAACGCUAUGGUGAAGGCAUAGUCCAGGGAGUGGCGAAAGUCACACAAACCGG

In the series the parent is B1. Kind of series: reverse-splicing fitness (ratio to wild type); higher = more active; in vitro selection; Mg2+ level not given. An outline of the steps: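 An in vitro group I ribozyme library with randomized positions was T7-transcribed and gel-purified. In triplicate, 10 pmol RNA in EPPS pH 7.5 was reacted with 50 pmoles of a 30-nt RNA substrate for 1 h at 37 °C across several added MgCl2 levels (1–48 mM), then stopped with EDTA. Products were reverse transcribed from a substrate-complementary primer, PCR-amplified and sequenced (HiSeq 4000). Fitness is a variant's read proportion after selection over that before, normalised to wild type.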
C82A A111C A120G A145U C169U U176C: the reverse-splicing fitness was 0.0118. C82A A111C A120G A145U C169U U176A: the reverse-splicing fitness was 0.0132. Regarding C82A A111C A120U A145C C150U C169G U176A, the reverse-splicing fitness was 0.00406.

On to C82A A111C A120U A145C C150U C169G U176C, for which the reverse-splicing fitness was 0.00264. For C82A A111C A120U A145C C150U C169G U176G the value was 0.00286; for C82A A111C A120U A145U C169A, 0.00297; for C82A A111C A120U A145U C169G, 0.00439.

For C82A A111C A120U A145C C150G C169U U176C, the reverse-splicing fitness was 0.00347. With C82A A111C A120U A145C C150G C169U U176A the figure was 0.00398; with C82A A111C A120U A145C C150G C169U U176G, 0.00285. With C82A A111C A120G A145U C150U C169A U176G the figure was 0.00604. For C82A A111C A120G A145U C150U C169A U176C the value was 0.00986; for C82A A111C A120G A145U C150U C169A U176A, 0.0123; for C82A A111C A120G A145U C150G C169G U176C, 0.00484. Regarding C82A A111C A120G A145U C150G C169G U176G, the reverse-splicing fitness was 0.00527.

C82A A111C A120G A145U C150G C169G U176A: the reverse-splicing fitness worked out at 0.00626. For C82A A111C A120G A145U C150G C169U U176G the value was 0.00542; for C82A A111C A120G A145U C150G C169U U176C, 0.0111; for C82A A111C A120G A145U C150G C169U U176A, 0.00693. On to C82A A111C A120U A145C C150G C169G U176G, for which the reverse-splicing fitness was 0.00318. With C82A A111C A120U A145C C150G C169G U176A the figure was 0.00291; with C82A A111C A120U A145C C150G C169G U176C, 0.00325. For C82A A111C A120G A145G C169U U176C the value was 0.0157. As to C82A A111C A120G A145G C169U U176G, the reverse-splicing fitness turned out to be 0.00473. For C82A A111C A120G A145G C169U U176A, the reverse-splicing fitness is 0.0159.

C82A A111C A120U A145C C150U C169A U176C: the reverse-splicing fitness was 0.00378. With C82A A111C A120U A145C C150U C169A U176G the figure was 0.00233. With C82A A111C A120U A145C C150U C169A U176A the figure was 0.00309; with C82A A111C A120U A145C C150G C169A U176C, 0.00263. Consider C82A A111C A120U A145C C150G C169A U176A, for which the reverse-splicing fitness turned out to be 0.00353. With C82A A111C A120U A145C C150G C169A U176G the figure was 0.00275; with C82A A111C A120U A145U C150G C169G U176A, 0.00314; with C82A A111C A120U A145U C150G C169G U176G, 0.00306. Consider C82A A111C A120U A145U C150G C169G U176C, for which the reverse-splicing fitness was determined as 0.00299. With C82A A111C A120U A145U C150U C169A U176G the figure was 0.00295; with C82A A111C A120U A145U C150U C169A U176A, 0.00334. With C82A A111C A120U A145U C150U C169A U176C, the reverse-splicing fitness was 0.00305. For C82A A111C A120G C169G U176G the value was 0.00494; for C82A A111C A120G C169G U176C, 0.0214. For the variant C82A A111C A120G C169G U176A, the reverse-splicing fitness worked out at 0.0165.

In the case of C82A A111C A120G A145U C150A C169U U176A, the reverse-splicing fitness came out at 0.017. With C82A A111C A120G A145U C150A C169U U176C the figure was 0.0127. With C82A A111C A120G A145U C150A C169U U176G the figure was 0.00563; with C82A A111C A120U A145C C150A U176A, 0.00393. Regarding C82A A111C A120U A145C C150A U176G, the reverse-splicing fitness turned out to be 0.00289. For C82A A111C A120U A145C C150A U176C the value was 0.00528; for C82A A111C A120G C150A C169G U176A, 0.0187. With C82A A111C A120G C150A C169G U176C the figure was 0.0234. With C82A A111C A120G C150A C169G U176G the figure was 0.00735; with C82A A111C A120G A145U C150A C169A U176G, 0.00621; with C82A A111C A120G A145U C150A C169A U176A, 0.0115. As for C82A A111C A120G A145U C150A C169A U176C, the reverse-splicing fitness was 0.0113. For C82A A111C A120G A145U C169G U176C the value was 0.012. For C82A A111C A120G A145U C169G U176G the value was 0.00481; for C82A A111C A120G A145U C169G U176A, 0.0102; for C82A A111C A120U A145U C150U C169G, 0.00466. With C82A A111C A120U A145U C150U C169A the figure was 0.00321; with C82A A111C A120U A145U C150U C169U, 0.00409; with C82A A111C A120U A145G C150U C169G U176A, 0.00597. Consider C82A A111C A120U A145G C150U C169G U176C, for which the reverse-splicing fitness amounted to 0.00509.

In the case of C82A A111C A120U A145G C150U C169G U176G, the reverse-splicing fitness was 0.00299. For the variant C82A A111C A120G C150A C169A U176G, the reverse-splicing fitness is 0.00729.

Take C82A A111C A120G C150A C169A U176C: the reverse-splicing fitness was 0.0168. For C82A A111C A120G C150A C169A U176A, the reverse-splicing fitness was 0.0182.

As for C82A A111C A120U A145G C150G C169U U176G, the reverse-splicing fitness amounted to 0.00484. For C82A A111C A120U A145G C150G C169U U176A the value was 0.00855; for C82A A111C A120U A145G C150G C169U U176C, 0.00842; for C82A A111C A120G A145G C169G U176A, 0.0211. For C82A A111C A120G A145G C169G U176C the value was 0.0266. For C82A A111C A120G A145G C169G U176G the value was 0.00491; for C82A A111C A120G A145G C169A U176C, 0.0288; for C82A A111C A120G A145G C169A U176G, 0.00509. For C82A A111C A120G A145G C169A U176A, the reverse-splicing fitness was determined as 0.0215. For C82A A111C A120G C150U C169G U176A the value was 0.0134. For the variant C82A A111C A120G C150U C169G U176G, the reverse-splicing fitness came to 0.00594.

As for C82A A111C A120G C150U C169G U176C, the reverse-splicing fitness turned out to be 0.0169. C82A A111C A120G C150U C169G: the reverse-splicing fitness came out at 0.00891. Take C82A A111C A120G C150U C169U: the reverse-splicing fitness is 0.00806.

Turning to C82A A111C A120G C150U C169A, the reverse-splicing fitness is 0.00973. With C82A A111C A120U A145G C150G U176A the figure was 0.00763.

As to C82A A111C A120U A145G C150G U176G, the reverse-splicing fitness was 0.00449. As to C82A A111C A120U A145G C150G U176C, the reverse-splicing fitness was 0.00851.

With C82A A111C A120G A145U C150U U176C, the reverse-splicing fitness is 0.0188.

Take C82A A111C A120G A145U C150U U176G: the reverse-splicing fitness is 0.00527.
